The text below walks through data of PMC8166090, “Improvements of the productivity and saccharification efficiency of the cellulolytic β-glucosidase D2-BGL in Pichia pastoris via directed evolution” (Biotechnology for Biofuels, 2021).

In series [1] the target is T1, D2-BGL (WT D2; Pp D2-BGL) (Chaetomella raphigera, UniProt A0A068FT77, D224G/F256M/Y260D).
T1 construct: 722 residues, 76 kDa theoretical; alpha-mating factor secretion signal upstream (pGAPZalphaC-D2); expressed in Pichia pastoris SMD 1168; glycosylated
T1 sequence (A0A068FT77 entry or part of it D224G/F256M/Y260D): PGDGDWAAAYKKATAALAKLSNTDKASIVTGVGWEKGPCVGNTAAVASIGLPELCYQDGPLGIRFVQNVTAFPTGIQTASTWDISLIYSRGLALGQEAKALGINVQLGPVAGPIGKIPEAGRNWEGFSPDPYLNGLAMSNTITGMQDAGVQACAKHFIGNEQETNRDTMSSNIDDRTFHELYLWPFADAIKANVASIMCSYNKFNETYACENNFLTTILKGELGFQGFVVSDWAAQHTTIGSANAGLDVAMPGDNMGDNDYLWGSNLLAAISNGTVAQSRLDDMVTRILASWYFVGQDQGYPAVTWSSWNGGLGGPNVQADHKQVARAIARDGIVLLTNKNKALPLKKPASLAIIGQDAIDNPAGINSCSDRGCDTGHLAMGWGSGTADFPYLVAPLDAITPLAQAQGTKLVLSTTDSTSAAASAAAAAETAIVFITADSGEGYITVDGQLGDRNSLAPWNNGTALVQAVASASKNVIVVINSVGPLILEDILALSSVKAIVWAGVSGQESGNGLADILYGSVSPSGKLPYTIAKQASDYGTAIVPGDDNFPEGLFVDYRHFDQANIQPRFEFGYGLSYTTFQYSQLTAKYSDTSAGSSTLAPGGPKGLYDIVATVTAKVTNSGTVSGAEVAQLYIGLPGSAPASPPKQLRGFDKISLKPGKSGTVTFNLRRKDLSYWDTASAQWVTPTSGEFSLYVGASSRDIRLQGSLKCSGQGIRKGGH
In words: p-nitrophenol release at […] nm, […] pNPG, substrate inhibition fit. The series is classed as biochemical. The note with it: 50 mM NaOAc pH 5, 55 °C.

The target in series [2] is T1, D2-BGL (WT D2; Pp D2-BGL). Kind of series: inhibition of pNPG hydrolysis with […] glucose. Type of series: biochemical. Particulars: pNPG as substrate; 50 mM NaOAc pH 5, 55 °C; product inhibition; read-out: Mut M.
The target of series [3] is T2, D2-BGL (WT D2; Pp D2-BGL) (Chaetomella raphigera, UniProt A0A068FT77).
T2 construct: 722 residues, 76 kDa theoretical; alpha-mating factor secretion signal upstream (pGAPZalphaC-D2); expressed in Pichia pastoris SMD 1168; glycosylated
T2 sequence (A0A068FT77 1-722): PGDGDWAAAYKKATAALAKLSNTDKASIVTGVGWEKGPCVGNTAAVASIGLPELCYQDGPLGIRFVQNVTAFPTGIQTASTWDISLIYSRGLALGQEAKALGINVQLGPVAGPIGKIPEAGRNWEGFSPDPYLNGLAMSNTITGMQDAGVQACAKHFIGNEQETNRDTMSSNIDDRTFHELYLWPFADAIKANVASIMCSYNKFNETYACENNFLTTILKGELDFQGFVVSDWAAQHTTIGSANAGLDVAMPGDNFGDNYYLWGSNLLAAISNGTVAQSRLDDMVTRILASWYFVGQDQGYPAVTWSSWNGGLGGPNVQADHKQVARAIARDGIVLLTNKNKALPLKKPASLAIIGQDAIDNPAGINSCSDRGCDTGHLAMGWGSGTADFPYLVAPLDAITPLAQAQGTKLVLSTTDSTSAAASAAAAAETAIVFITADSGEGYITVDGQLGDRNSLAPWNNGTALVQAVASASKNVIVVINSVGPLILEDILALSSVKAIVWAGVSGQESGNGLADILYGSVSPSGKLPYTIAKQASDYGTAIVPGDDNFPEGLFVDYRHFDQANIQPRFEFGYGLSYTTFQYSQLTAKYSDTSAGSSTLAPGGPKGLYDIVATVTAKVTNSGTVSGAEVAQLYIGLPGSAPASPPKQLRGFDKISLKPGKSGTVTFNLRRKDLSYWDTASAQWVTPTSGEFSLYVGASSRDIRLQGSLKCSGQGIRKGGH
Kind of series: inhibition of pNPG hydrolysis with […] glucose. The series is classed as biochemical. The note with it: pNPG as substrate; 50 mM NaOAc pH 5, 55 °C; product inhibition.

Substrate in the series “purified protein”: O=[N+]([O-])c1ccc(O[C@@H]2O[C@H](CO)[C@@H](O)[C@H](O)[C@H]2O)cc1
In words: purified protein. Particulars: 50 mM NaOAc pH 5, 55 °C.

One may read the Km as the concentration of substrate that gives half-maximal velocity. The term Vmax denotes the top rate of the reaction or transport when substrate is in excess.

Changes are numbered by the printed parent chain. Names and notes keep the numbering of the source.

For the molecule `O=[N+]([O-])c1ccc(O[C@@H]2O[C@H](CO)[C@@H](O)[C@H](O)[C@H]2O)cc1` [pNPG, p-nitrophenyl β-D-glucopyranoside], the “kinetic constant from substrate inhibition fit” value in series [1] was determined as 3.21 ± 0.56 mM.
`OC[C@H]1OC(O)[C@H](O)[C@@H](O)[C@@H]1O` (stereo partly shown) [glucose]: the Ki in series [2] was determined as 1.59 ± 0.07 mM; in series [3], 3.23 ± 1.08 mM.

B1: D2-BGL (WT D2; Pp D2-BGL) (Chaetomella raphigera) (protein)
chain: T2 sequence (A0A068FT77 1-722)
In the case of B1, in “purified protein”, the Km turned out to be 0.31 ± 0.14 mM and the maximal velocity (Vmax) worked out at 575 µM/min.

B2: D2-BGL (WT D2; Pp D2-BGL) (Chaetomella raphigera; D224G/F256M/Y260D) (protein)
chain: T2 sequence (A0A068FT77 1-722) with D224G, F256M, Y260D
With B2, in the series “purified protein”, the Michaelis constant (Km) came out at 0.18 ± 0.05 mM and the Vmax amounted to 374 µM/min.
